# Patent US20240158474A1 (SINO BIOLOGICAL, published 2024)
# B1: monoclonal antibody HPV6-R003 (antibody, V domains shown)
# VH: QQQLEESGGGLVKPGGTLTLTCKASGIDLSNYYMCWVRQAPGKGLEWIGCIYTGSGRTYYASWAKGRFTISKASSTTVTLQMTSLTAADTATYFCARDYLGWRASNIWGPGTLVTVSS
# VL: ELVMTQTPSSVSAAVGGTVTINCQASQSVYSNNLVWYQQKPGQPPKLLIYGASTLASGVPSRFKGSGSGTQFTLTISDVVCDDAATYYCGGYVSDSTDGTAFGGGTEVVVKG
# notes: here built from variable plus constant region so that the signal peptides are left out; In the sandwich ELISA the same antibody is used as coating antibody and, labelled with horseradish peroxidase, as detection antibody; also called anti-HPV6 L1 protein antibody
# Experiments:
# Experiment in all cases: indirect ELISA, VLP coated at 2 µg/mL, antibody 10 ng/mL, HRP goat anti-rabbit Fc
# HPV6 VLP protein = target: T1, HPV6 VLP protein (human papillomavirus type 6 (C-terminal …, UniProt P69898 1-469))
# T1 construct: Virus-like particle self-assembled from the L1 chain, expressed in an insect cell system; also called HPV6 L1; HPV6L1(1-469Y)+HPV33L1(474K-499K)
# T1 sequence: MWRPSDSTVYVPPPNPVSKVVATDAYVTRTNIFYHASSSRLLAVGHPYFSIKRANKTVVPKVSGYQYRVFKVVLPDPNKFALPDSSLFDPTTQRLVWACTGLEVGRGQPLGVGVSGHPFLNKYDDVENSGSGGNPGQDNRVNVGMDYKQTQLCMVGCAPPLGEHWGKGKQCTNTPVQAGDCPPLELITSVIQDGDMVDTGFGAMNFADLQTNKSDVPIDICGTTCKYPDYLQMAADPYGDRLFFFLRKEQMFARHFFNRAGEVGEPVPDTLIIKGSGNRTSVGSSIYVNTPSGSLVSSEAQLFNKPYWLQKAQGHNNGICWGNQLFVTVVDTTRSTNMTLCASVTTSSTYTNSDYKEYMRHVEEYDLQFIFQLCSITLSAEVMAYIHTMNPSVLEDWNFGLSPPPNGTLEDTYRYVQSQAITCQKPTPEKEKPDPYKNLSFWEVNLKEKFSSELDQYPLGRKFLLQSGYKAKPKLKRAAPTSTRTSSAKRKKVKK
# HPV45 VLP protein = target: T2, HPV45 VLP protein (human papillomavirus type 45; human …, UniProt P36741 1-478; P06416 474-499)
# T2 construct: range 1-478;range 474-499; Complete VLP protein used as coating protein; also called HPV45L1(1-478L)+HPV33L1(474K-499K)
# T2 sequence: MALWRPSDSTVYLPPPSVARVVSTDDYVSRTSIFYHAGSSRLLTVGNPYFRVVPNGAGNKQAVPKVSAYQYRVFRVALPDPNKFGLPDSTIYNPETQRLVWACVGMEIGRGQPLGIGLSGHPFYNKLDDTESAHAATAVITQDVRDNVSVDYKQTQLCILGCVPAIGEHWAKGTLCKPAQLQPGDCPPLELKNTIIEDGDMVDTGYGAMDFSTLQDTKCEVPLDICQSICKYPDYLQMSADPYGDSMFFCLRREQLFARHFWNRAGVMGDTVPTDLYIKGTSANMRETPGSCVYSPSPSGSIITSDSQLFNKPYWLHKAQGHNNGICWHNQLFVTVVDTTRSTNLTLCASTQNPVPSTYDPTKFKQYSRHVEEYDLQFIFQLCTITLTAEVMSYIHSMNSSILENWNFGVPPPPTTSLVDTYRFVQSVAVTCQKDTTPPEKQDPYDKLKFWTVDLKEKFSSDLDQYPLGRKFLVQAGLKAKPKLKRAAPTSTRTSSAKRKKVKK
# HPV31 VLP protein = target: T3, HPV31 VLP protein (human papillomavirus type 31; human …, UniProt P17388 1-475; P06416 474-499)
# T3 construct: range 1-475;range 474-499; Complete VLP protein used as coating protein; also called P31SHELL(1-475Y)+HPV33L1(474K-499K)
# T3 sequence: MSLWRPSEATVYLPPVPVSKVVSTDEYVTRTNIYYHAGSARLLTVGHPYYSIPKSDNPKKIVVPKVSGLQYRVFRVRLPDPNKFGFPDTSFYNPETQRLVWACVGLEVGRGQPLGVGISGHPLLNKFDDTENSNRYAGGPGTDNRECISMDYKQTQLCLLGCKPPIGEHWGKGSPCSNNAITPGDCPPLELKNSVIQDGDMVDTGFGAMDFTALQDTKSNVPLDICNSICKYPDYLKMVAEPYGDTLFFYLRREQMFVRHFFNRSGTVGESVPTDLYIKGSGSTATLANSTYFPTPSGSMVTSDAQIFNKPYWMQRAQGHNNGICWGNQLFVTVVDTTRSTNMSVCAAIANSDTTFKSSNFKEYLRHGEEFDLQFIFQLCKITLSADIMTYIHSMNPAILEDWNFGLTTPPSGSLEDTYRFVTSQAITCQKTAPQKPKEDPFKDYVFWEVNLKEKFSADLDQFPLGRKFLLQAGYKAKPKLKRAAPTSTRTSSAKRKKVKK
# HPV59 VLP protein = target: T4, HPV59 VLP protein (human papillomavirus type 59)
# T4 construct: Complete VLP protein; no limits of the construct printed, whole entry named; also called HPV59L1
# HPV39 VLP protein = HPV39 VLP protein (human papillomavirus type 39; human …, UniProt P24838 1-469)
# HPV33 VLP protein = target: T5, HPV33 VLP protein (human papillomavirus type 33, UniProt P06416 1-499)
# T5 construct: Complete VLP protein; no limits of the construct printed, whole entry named; also called HPV33L1
# T5 sequence: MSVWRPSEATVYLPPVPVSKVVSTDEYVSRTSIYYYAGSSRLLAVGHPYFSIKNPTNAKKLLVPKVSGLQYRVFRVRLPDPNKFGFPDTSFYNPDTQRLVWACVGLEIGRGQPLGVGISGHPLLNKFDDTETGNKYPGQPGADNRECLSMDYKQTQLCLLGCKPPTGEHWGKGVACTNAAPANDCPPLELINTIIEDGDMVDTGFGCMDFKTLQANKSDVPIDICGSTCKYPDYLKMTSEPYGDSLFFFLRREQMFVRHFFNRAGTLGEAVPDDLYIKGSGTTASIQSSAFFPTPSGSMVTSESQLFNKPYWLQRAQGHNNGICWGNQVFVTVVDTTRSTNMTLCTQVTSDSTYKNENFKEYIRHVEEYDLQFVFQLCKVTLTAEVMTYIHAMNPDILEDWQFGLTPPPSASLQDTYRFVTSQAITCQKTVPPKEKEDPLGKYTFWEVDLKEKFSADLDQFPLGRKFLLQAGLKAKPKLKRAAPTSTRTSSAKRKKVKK
binder,measurement,setting,value
B1,OD450-blank,HPV6 VLP protein,2.42 OD450
same,OD450-blank,HPV45 VLP protein,0.061 OD450
same,OD450-blank,HPV31 VLP protein,0.047 OD450
same,OD450-blank,HPV59 VLP protein,0.041 OD450
same,OD450-blank,HPV39 VLP protein,0.047 OD450
same,OD450-blank,HPV33 VLP protein,0.047 OD450
